Results taken from patent US20180334702A1.
No end group written: not given here. *: point of attachment. aminohexane = linker joining biotin to the N-terminal residue; Biotin = O=C1N[C@H]2[C@H](CS[C@H]2CCCCC(=O)*)N1

Molecular target: CDK4/6
Experiment: cell-based or functional assay
Conditions: scale: relative value

For {Biotin-aminohexane}-GMPWSPNAWWRGGGG [Polypeptide 8], the CDK4/6 Reactivity was 7.

{Biotin-aminohexane}-GMPWSPNPWARGGGG [Polypeptide 10] was tested, and the CDK4/6 Reactivity was 15.

{Biotin-aminohexane}-GMPFSPNPWWRGGGG [Polypeptide 13] showed a CDK4/6 Reactivity of 5.

For {Biotin-aminohexane}-GAPWSPNPWWRGGGG [Polypeptide 3], the CDK4/6 Reactivity was 33.

{Biotin-aminohexane}-GMPWSPNPWWRGGGG [Polypeptide 1] showed a CDK4/6 Reactivity of 13.

Binder {Biotin-aminohexane}-GMPASPNPWWRGGGG [Polypeptide 5] has a CDK4/6 Reactivity of 1.

{Biotin-aminohexane}-GMWWSPNPWWRGGGG [Polypeptide C] gave a CDK4/6 Reactivity of 5.

Binder {Biotin-aminohexane}-GMYWSPNPWWRGGGG [Polypeptide E] has a CDK4/6 Reactivity of 6.

{Biotin-aminohexane}-AMPWSPAPAARAGGG [Polypeptide F] showed a CDK4/6 Reactivity of 7.

In the case of {Biotin-aminohexane}-GMPWSPNPWWHGGGG [Polypeptide A], the CDK4/6 Reactivity is reported as 7.

For {Biotin-aminohexane}-GMAWSPNPWWRGGGG [Polypeptide 4], the CDK4/6 Reactivity was 5.

{Biotin-aminohexane}-GMPWSPNPWWAGGGG [Polypeptide 11] showed a CDK4/6 Reactivity of 3.

With {Biotin-aminohexane}-GMPWSPNPWWKGGGG [Polypeptide B] the CDK4/6 Reactivity was 5.

Binder {Biotin-aminohexane}-GMFWSPNPWWRGGGG [Polypeptide D] has a CDK4/6 Reactivity of 5.

Binder {Biotin-aminohexane}-GMPWSFNPWWRGGGG [Polypeptide 16] has a CDK4/6 Reactivity of 2.

With {Biotin-aminohexane}-GMPWSANPWWRGGGG [Polypeptide 6] the CDK4/6 Reactivity was 1.

With {Biotin-aminohexane}-GMPYSPNPWWRGGGG [Polypeptide 14] the CDK4/6 Reactivity was 5.

In the case of {Biotin-aminohexane}-AMPWSPNPWWRGGGG [Polypeptide 2], the CDK4/6 Reactivity is reported as 15.

{Biotin-aminohexane}-GMPWSPNPWWRAGGG [Polypeptide 12] was tested, and the CDK4/6 Reactivity was 6.

Binder {Biotin-aminohexane}-GMPWSPAPWWRGGGG [Polypeptide 7] has a CDK4/6 Reactivity of 8.

For {Biotin-aminohexane}-GMPWSYNPWWRGGGG [Polypeptide 17], the CDK4/6 Reactivity was 2.

In the case of {Biotin-aminohexane}-GMPWSWNPWWRGGGG [Polypeptide 15], the CDK4/6 Reactivity is reported as 2.

Work on {Biotin-aminohexane}-GMPWSPNPAWRGGGG [Polypeptide 9] yielded a CDK4/6 Reactivity of 7.
